According to the supplement of paper PMC7877785:
± gives the uncertainty stated by the source.

Test: self-splicing fitness, log relative to wild type (ln ratio); higher = more splicing; Tetrahymena group I intron in knt gene, E. coli kanamycin selection, DiMSum; sequences stand for … in CUCUCU…GGAGGGAAAAGUUAUCAGGCAUGCACCUGGUAGCUAGUCUUUAAACCAAUAGAUUGCAUCGGUUUAAAAGGCAAGACCGUCAAAUUGCGGGAAAGGGGUCAACAGCCGUUCAGUACCAAGUCUCAGGGGAAACUUUGAGAUGGCCUUGCAAAGGGUAUGGUAAUAAGCUGACGGACAUGGUCCUAACCACGCAGCCAAGUCCUAAGUCAACAGAUCUUCUGUUGAUAUGGAUGCAGUUCACAGACUAAAUGUCGGUCGGGGAAGAUGUAUUCUUCUCAUAAGAUAUAGUCGGACCUCUCCUUAAUGGGAGCUAGCGGAUGAAGUGAUGCAACACUGGAGCCGCUGGGAACUAAUUUGUAUGCGAAAGUAUAUUGAUUAGUUUUGGAGUACUCGUGGUCG
Outline: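 The eight P1ex-region nucleotides of an intron in the knt kanamycin-resistance gene on pET-22b(+) were all randomised and the library put into E. coli BL21(DE3). Six replicate transformations were grown overnight at 37°C or 30°C on LB agar with or without 25 μg/mL kanamycin, together with 100 μg/mL carbenicillin, 50 μM IPTG and 0.2% rhamnose. Colonies were pooled and amplicon-sequenced on an Illumina HiSeq 2500. Fitness from DiMSum is the error-weighted combination of wild-type-normalised replicate fold changes, kanamycin over none.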

Sequence | self-splicing fitness (ln) (30 °C) | self-splicing fitness (ln) (37 °C)
CGACAGCAAUAUUACGGAAG | -2.1 ± 0.068 | -1.24 ± 0.083
CGACAGCAAUAUUACGGACG | -2.24 ± 0.11 | -1.33 ± 0.15
CGACAGCAAUAUUACGGCAU | -3.08 ± 0.21 | -2.16 ± 0.25
CGACAGCAAUAUUACGGCGA | -1.65 ± 0.14 | -0.523 ± 0.13
CGACAGCAAUAUUACGGCGC | -3.37 ± 0.24 | -0.977 ± 0.15
CGACAGCAAUAUUACGGCGG | -0.174 ± 0.078 | 0.335 ± 0.11
CGACAGCAAUAUUACGGCGU | -3.22 ± 0.088 | -1.59 ± 0.074
CGACAGCAAUAUUACGGGCG | -1.71 ± 0.17 | -1.81 ± 0.19
CGACAGCAAUAUUACGGGCU | -4.16 ± 0.2 | -2.53 ± 0.15
CGACAGCAAUAUUACGGUAG | -1.47 ± 0.069 | -0.946 ± 0.069
CGACAGCAAUAUUACGGUCA | -0.168 ± 0.083 | 0.276 ± 0.1
CGACAGCAAUAUUACGGUCG | -3.33 ± 0.14 | -2.48 ± 0.15
CGACAGCAAUAUUACGUGUC | -3.39 ± 0.13 | -2.01 ± 0.12
CGAGAGCAAUAUUACGACAU | -3.964 ± 0.034 | -2.84 ± 0.046
CGAGAGCAAUAUUACGACUC | -2.03 ± 0.42 | -0.968 ± 0.39
CGAGAGCAAUAUUACGAUAC | -3.49 ± 0.42 | -1.05 ± 0.26
CGAGAGCAAUAUUACGAUCA | -2.63 ± 0.38 | -1.75 ± 0.38
CGAGAGCAAUAUUACGAUCU | -2.45 ± 0.42 | 
CGAGAGCAAUAUUACGCUAA | -2.68 ± 0.33 | 
CGAGAGCAAUAUUACGGAUC | -3.76 ± 0.38 | -1.51 ± 0.28
CGAGAGCAAUAUUACGGCAU | -3.2 ± 0.42 | -2.15 ± 0.46
CGAGAGCAAUAUUACGGCCU | -2.61 ± 0.39 | -2.63 ± 0.44

Sequence | self-splicing fitness (ln) (30 °C) | self-splicing fitness (ln) (37 °C)
CGAGAGCAAUAUUACGGUAA | -1.51 ± 0.25 | -2.55 ± 0.28
CGAGAGCAAUAUUACGGUUA | -3.13 ± 0.43 | -2.79 ± 0.49
CGAGAGCAAUAUUACGUACU |  | -0.953 ± 0.3
CGAGAGCAAUAUUACGUAGU | -2.78 ± 0.3 | -1.7 ± 0.27
CGAGAGCAAUAUUACGUAUG | -3.68 ± 0.29 | -1.49 ± 0.21
CGAGAGCAAUAUUACGUCUA | -3.15 ± 0.36 | 
CGAGAGCAAUAUUACGUGAC | -2.77 ± 0.2 | -2.01 ± 0.29
CGAGAGCAAUAUUACGUGGA | -3.7 ± 0.26 | -2.89 ± 0.23
CGAGAGCAAUAUUACGUGUG | -2.97 ± 0.12 | -2.5 ± 0.15
CGAUAGCAAUAUUACGAAGG | -0.374 ± 0.11 | -0.55 ± 0.17
CGAUAGCAAUAUUACGAAUU | -4.06 ± 0.3 | -2.41 ± 0.21
CGAUAGCAAUAUUACGACAA | -3.4 ± 0.34 | -2.35 ± 0.27
CGAUAGCAAUAUUACGACUC | -1.15 ± 0.15 | -1.38 ± 0.17
CGAUAGCAAUAUUACGAGAG | -2.05 ± 0.2 | -2.66 ± 0.26
CGAUAGCAAUAUUACGAUCU | -0.235 ± 0.11 | 0.177 ± 0.12
CGAUAGCAAUAUUACGAUUU | -2.52 ± 0.14 | -0.871 ± 0.14
CGAUAGCAAUAUUACGCAGA | -3.24 ± 0.21 | -1.75 ± 0.13
CGAUAGCAAUAUUACGCAGG | -1.6 ± 0.092 | -1.25 ± 0.1
CGAUAGCAAUAUUACGCAUC | -3.16 ± 0.31 | -1.94 ± 0.38
CGAUAGCAAUAUUACGCGUA | -2.42 ± 0.41 | -2.14 ± 0.24
CGAUAGCAAUAUUACGCGUC |  | -1.76 ± 0.47
